Results on two molecules are retold here after article PMC4349606, “Solution structure and biophysical characterization of the multifaceted signalling effector protein growth arrest specific-1” (BMC Biochemistry, 2015).

The target of one experiment is RET (Homo sapiens) (UniProt P07949). Particulars: cited from earlier work.
Experiment [1] deals with T1, ectodomain of RET protein (ecRET; R&D Systems, catalog no. 1168-CR-050/CF) (UniProt P07949 29-635).
T1 construct: Rearranged during transformation (RET) receptor tyrosine kinase, ectodomain; also called RET receptor; extracellular part of RET; source: bought: R&D Systems (catalog no. 1168-CR-050/CF)
The experiment in a line: SPR; Biacore; ecRET amine-coupled to a CM5 chip at 4000 RU; GAS1 series 2-32 uM injected at 20 ul/min for 2 min; 10 mM Hepes pH 7.4, 150 mM NaCl, 1 mM CaCl2, 0.01% Triton X-100; Kd from equilibrium responses (Req), two independent experiments. Particulars: both partners purified. A general note: In SPR one partner is held on a chip, and binding of the other changes the refractive index at the surface.

RET (Homo sapiens), sequence (P07949 29-635): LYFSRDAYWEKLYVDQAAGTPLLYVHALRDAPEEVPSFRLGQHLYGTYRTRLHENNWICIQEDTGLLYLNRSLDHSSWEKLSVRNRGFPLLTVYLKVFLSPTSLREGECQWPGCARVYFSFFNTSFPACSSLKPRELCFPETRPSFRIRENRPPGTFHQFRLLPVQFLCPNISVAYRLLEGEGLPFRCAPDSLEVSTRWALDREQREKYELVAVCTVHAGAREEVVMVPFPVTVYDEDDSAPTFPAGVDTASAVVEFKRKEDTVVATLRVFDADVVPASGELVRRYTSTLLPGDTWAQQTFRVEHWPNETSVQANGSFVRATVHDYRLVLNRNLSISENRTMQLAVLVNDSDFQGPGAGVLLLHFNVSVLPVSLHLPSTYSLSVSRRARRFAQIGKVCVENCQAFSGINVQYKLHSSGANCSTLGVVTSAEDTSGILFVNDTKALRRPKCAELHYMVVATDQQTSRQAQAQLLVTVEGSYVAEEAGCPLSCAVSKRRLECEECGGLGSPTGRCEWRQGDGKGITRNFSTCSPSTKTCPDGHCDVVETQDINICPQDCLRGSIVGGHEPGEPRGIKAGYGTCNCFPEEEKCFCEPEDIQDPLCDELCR
T1 sequence (P07949 29-635): as above

The Kd is the free concentration of one partner at which half of the binding sites on the other are occupied at equilibrium, for simple one-to-one binding. In the case of GFRα1-GDNF (from UniProt P56159), the dissociation constant (Kd) with RET (Homo sapiens) was 0.2 nM.

B1: human growth arrest specific-1 (GAS1), soluble form without the GPI-anchor, amino acids 39-317 (domain or fragment, UniProt P54826 39-317, looked up)
chain: GLAHGRRLICWQALLQCQGEPECSYAYNQYAEACAPVLAQHGGGDAPGAAAAAFPASAASFSSRWRCPSHCISALIQLNHTRRGPALEDCDCAQDENCKSTKRAIEPCLPRTSGGGAGGPGAGGVMGCTEARRRCDRDSRCNLALSRYLTYCGKVFNGLRCTDECRTVIEDMLAMPKAALLNDCVCDGLERPICESVKENMARLCFGAELGNGPGSSGSDGGLDDYYDEDYDDEQRTGGAGGEQPLDDDDGVPHPPRPGSGAAASGGRGDLPYGPGRRS
modifications: glycosylated: approximately one N-glycan added in the insect cells (N-glycosylation site predicted at Asn117)
notes: secreted with the honey bee mellitin signal of the vector pK509.3; after thrombin cleavage Gly-Ser of the site probably remains at the N-terminus (surmise); Theoretical mass without glycan printed as 29.0 kDa; also called recombinant human GAS1; not shown: FLAG, N-terminal, cleaved; His6, N-terminal, cleaved
B1 registered a Kd in experiment [1] of 12.2 µM.
